How the values were obtained:
[1] = Hydrophobicity (hydrophobic index k'rel) relative to human insulin by isocratic RP-HPLC; format: physicochemical
Procedure: The elution was monitored by following the UV absorption of the eluate at 214 nm. Void time, t0, was found by injecting 0.1 mM sodium nitrate.

human insulin receptor = human insulin receptor (Homo sapiens, UniProt P06213); experiment: Insulin receptor binding, SPA antibody capture assay
Procedure: SPA-PVT antibody-binding beads, anti-mouse reagent (Amersham Biosciences, Cat No. PRNQ0017) were mixed with 25 ml of binding buffer (100 mM HEPES pH 7.8; 100 mM sodium chloride, 10 mM MgSO4, 0.025% Tween-20). […] A total of 100 μl was then added and a dilution series is made from appropriate samples. To the dilution series was then added 100 μl of reagent mix and the samples were incubated for 16 hours while gently shaken. The phases were the then separated by centrifugation for 1 min and the plates counted in a Topcounter. The binding data were fitted using the nonlinear regression algorithm in the GraphPad Prism 2.01 (GraphPad Software, San Diego, Calif.).

[2] = Self-association by size exclusion chromatography (SEC), Kav; format: physicochemical
Procedure: The ability of the insulin derivatives of the invention to self-associate into large, but soluble complexes is analysed using SEC (size exclusion chromatography):
The following equation is used to determine the Kav for the derivative: Kav=(t−t0)/(Vt/(f+td−t0)) Where t is the retention time for a given peak, t0 is the retention time for Blue dextran, Vt is the total column volume (here 2.4 ml), f is the flow (here 0.04 ml/min), and td is the retention time for Blue dextran without the column in the system.

[3] = LiChrosorb RP18, 40° C., pH 7.3, HI = 1
[4] = recombinant human insulin receptor-exon 11, SPA

Sequence of human insulin receptor (P06213 28-746 isoform P06213-2 limits assumed): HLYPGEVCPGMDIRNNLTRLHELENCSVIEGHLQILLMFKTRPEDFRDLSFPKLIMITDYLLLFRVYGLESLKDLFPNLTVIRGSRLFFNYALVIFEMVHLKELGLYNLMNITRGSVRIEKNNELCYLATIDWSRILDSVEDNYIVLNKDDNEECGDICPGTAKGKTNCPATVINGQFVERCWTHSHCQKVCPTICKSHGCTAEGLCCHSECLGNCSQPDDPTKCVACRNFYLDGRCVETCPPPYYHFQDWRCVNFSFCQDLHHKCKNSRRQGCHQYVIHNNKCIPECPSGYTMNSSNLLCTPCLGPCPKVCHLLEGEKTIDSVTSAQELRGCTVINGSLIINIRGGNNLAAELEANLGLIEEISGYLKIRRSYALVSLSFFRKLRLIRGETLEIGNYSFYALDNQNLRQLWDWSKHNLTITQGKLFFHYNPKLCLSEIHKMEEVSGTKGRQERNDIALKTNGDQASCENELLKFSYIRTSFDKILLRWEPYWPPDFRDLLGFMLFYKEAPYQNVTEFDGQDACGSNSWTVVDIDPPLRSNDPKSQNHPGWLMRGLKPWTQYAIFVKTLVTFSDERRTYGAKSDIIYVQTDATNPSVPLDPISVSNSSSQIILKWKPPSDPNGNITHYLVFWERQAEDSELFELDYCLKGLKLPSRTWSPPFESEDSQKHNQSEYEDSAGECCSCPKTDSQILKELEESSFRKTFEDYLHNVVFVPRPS
Sequence of human insulin receptor (P06213 763-1382 partner limits assumed): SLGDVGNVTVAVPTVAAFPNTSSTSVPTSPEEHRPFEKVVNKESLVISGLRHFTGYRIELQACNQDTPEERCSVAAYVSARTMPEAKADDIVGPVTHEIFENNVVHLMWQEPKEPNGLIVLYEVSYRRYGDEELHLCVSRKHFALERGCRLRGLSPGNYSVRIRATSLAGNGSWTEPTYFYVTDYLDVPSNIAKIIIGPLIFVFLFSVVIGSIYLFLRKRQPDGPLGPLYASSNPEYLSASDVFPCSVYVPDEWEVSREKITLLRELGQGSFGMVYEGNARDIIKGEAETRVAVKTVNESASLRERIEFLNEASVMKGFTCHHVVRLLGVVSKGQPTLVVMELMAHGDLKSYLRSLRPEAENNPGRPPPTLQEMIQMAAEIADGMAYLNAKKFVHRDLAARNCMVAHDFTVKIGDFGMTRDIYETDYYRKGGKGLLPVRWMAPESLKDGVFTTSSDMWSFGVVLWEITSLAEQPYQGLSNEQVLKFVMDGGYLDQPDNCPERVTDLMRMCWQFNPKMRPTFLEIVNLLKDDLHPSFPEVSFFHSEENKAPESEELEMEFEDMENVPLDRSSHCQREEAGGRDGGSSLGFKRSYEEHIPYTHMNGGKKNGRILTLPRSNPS

Substance	Hydrophobicity relative to human insulin [1, 3]	Hydrophobicity relative to human insulin ([1]; class symbol, HI = 1)	Insulin receptor affinity relative to human insulin (human insulin receptor; class symbol)	Insulin receptor affinity relative to human insulin (human insulin receptor; [4])	Self-association: Kav ([2]; SEC Superose 6, 37° C., 0.6 mM derivative, 2.1 Zn2+/hexamer, 16 mM phenol, pH 7.8, one value per peak)	Self-association: % area of peak ([2]; area of the peak whose Kav is in the cell above)	Self-association: Kav ([2]; class symbol)
N^εB29-(3-(3-{4-[3-(7-carboxyheptanoylamino)propoxy]butoxy}propylcarbamoyl)-propionyl-γ-glutamylamide) desB30 human Insulin [Example 11]	0.435	+++ (k'rel < 1: +++)	++ (5-50%: ++)	43%	–	–	–
N^εB29-ω-carboxy-undecanoyl-δ-amino-butanoyl desB30 human insulin [Example 13]	0.552	+++ (k'rel < 1: +++)	+++ (>50%: +++)	59%	0.69	(100%)	+ (Kav ≧ 0.55: +)
N^εB29-ω-carboxy-pentadecanoyl-γ-L-aspartylamide desB30 human insulin [Example 6]	–	–	++ (5-50%: ++)	33%	–	–	–

Reference: patent US8933021B2, “Insulin derivative” (Novo Nordisk A/S, priority 2006, dated 2015)
